IC50 activity group, enzyme release assay and EC50, agonistic activity, enzyme release assay data for 35 substances are collected here from patent US7727960B2, “C5a receptor antagonists” (Jerini AG, priority 2003, dated 2010).

This assay has as its target T1, human C5aR (CD88) (human, UniProt P21730 1-350).
T1 sequence (looked up): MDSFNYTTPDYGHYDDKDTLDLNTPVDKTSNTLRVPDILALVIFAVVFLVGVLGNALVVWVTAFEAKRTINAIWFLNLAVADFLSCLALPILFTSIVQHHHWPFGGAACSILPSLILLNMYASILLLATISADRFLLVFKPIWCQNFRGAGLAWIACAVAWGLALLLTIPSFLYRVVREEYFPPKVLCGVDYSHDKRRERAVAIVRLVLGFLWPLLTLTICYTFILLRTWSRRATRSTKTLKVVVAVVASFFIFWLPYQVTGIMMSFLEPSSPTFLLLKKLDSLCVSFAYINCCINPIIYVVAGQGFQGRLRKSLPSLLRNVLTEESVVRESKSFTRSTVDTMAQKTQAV
Briefly: cell-based or functional assay.
In turn, “Ac-Mff-Orn-Pro-cha-Bta-Phe-NH2 (peptide)” yielded an IC50 activity group, enzyme release assay of less than 200 nM. In turn, “Ac-Thi-Orn-Pro-cha-Bta-Phe-NH2 (peptide)” had an IC50 activity group, enzyme release assay of less than 50 nM.

H-Phe-[Orn-Pro-hle-Mcf-Phe] (peptide): the IC50 activity group, enzyme release assay was less than 50 nM. Same read-out and setting: the figure for “Ac-Phe-[Orn-Hyp(COCH2OCH2CH2OCH2CH2OCH3)-cha-Trp-Nle] (peptide)” is less than 200 nM. Ac-Phe-[Orn-Hyp-cha-Trp-Phe] (peptide) showed an EC50, agonistic activity, enzyme release assay of more than 1430 nM and an IC50 activity group, enzyme release assay of less than 50 nM. Ac-Phe-[Orn-Ser-hle-Trp-Nle] (peptide): the IC50 activity group, enzyme release assay is less than 200 nM. “Ac-Lys-Phe-Orn-Aze-cha-Bta-Phe-NH2 (peptide)”: the IC50 activity group, enzyme release assay is less than 20 nM.

On to “Ac-Pff-Orn-Pro-cha-Bta-Phe-NH2 (peptide)”, for which the IC50 activity group, enzyme release assay was less than 50 nM.

With “Ac-Phe-Orn-Pro-hle-Pff-Pff-NH2 (peptide)”, the IC50 activity group, enzyme release assay was less than 200 nM. For the substance Ac-Phe-[Orn-Pro-cha-Pff-Nle] (peptide), the IC50 activity group, enzyme release assay was less than 200 nM. Same read-out and setting: the figure for “Ac-Phe-Orn-Chy-cha-Bta-Phe-NH2 (peptide)” is less than 200 nM; for Ac-Phe-[Orn-Tic-cha-Trp-Nle] (peptide) it is less than 200 nM; for “Ac-Phe-Fcn-Pro-cha-Bta-Phe-NH2 (peptide)” it is less than 20 nM.

The substance “Ac-Phe-Orn-Pro-hle-Pff-Cha-NH2 (peptide)” showed an IC50 activity group, enzyme release assay of less than 200 nM. “Ac-Eby-Orn-Pro-cha-Bta-Phe-NH2 (peptide)” showed an IC50 activity group, enzyme release assay of less than 50 nM. The substance “Ac-Phe-Orn-Pro-hle-Bta-Pcf-NH2 (peptide)” had an IC50 activity group, enzyme release assay of less than 200 nM. The same measure, in the same setting: with “Ac-Phe-Orn-Pro-hle-Pff-Eaa-NH2 (peptide)” the figure was less than 200 nM; with “Ac-Phe-Orn-Aze-cha-Bta-NH-CH2-CH2-Ph (peptide)”, less than 2000 nM. Substance “Ac-Phe-Orn-Aze-cha-Pcf-Phe-NH2 (peptide)” gave an IC50 activity group, enzyme release assay of less than 2000 nM. Consider “Ac-Phe-Orn-Pro-cha-Otf-Phe-NH2 (peptide)”, for which the IC50 activity group, enzyme release assay was less than 200 nM. On the same count and under the same terms, the figure for “H-Bal-Phe-[Orn-Pro-hle-Pff-Nle] (peptide)” is less than 200 nM; for H-Phe-[Orn-NMS-hle-Pff-Phe] (peptide) it is less than 200 nM.

“Ac-Pff-Orn-Pro-hle-Mcf-Pff-NH2 (peptide)” came in with an IC50 activity group, enzyme release assay of less than 200 nM. “FAc-Phe-Orn-Pro-cha-Bta-Phe-NH2 (peptide)” yielded an IC50 activity group, enzyme release assay of less than 50 nM. The same measure, in the same setting: the figure for “Ac-Phe-Dab-Aze-hle-Bta-Phe-NH2 (peptide)” is less than 50 nM; for “FAc-Phe-Orn-Aze-cha-Bta-Phe-NH2 (peptide)” it is less than 50 nM; for “Ac-Phe-Orn-Pro-cha-Bta-1Ni-NH2 (peptide)” it is less than 200 nM. “Ac-Phe-Orn-Pro-hle-Bta-1Ni-NH2 (peptide)” came in with an IC50 activity group, enzyme release assay of less than 200 nM. In the case of “Ac-Phe-Orn-Pro-hle-Bta-Pff-NH2 (peptide)”, the IC50 activity group, enzyme release assay is less than 200 nM. The same measure, in the same setting: the figure for “Ac-Phe-Orn-Pro-cha-Bta-2Ni-NH2 (peptide)” is less than 50 nM. H-Phe-[Lys-Hyp-hle-Pff-Nle] (peptide) yielded an IC50 activity group, enzyme release assay of less than 200 nM. Same read-out and setting: the figure for “Ac-Phg-Orn-Pro-cha-Bta-Phe-NH2 (peptide)” is less than 200 nM; for “Ac-Mff-Orn-Pro-hle-Bta-Phe-NH2 (peptide)” it is less than 200 nM; for “H-Nip-Phe-Cit-Pro-hle-Bta-Phe-NH2 (peptide)” it is less than 200 nM. In turn, “Ac-Phe-Orn-Pro-hle-Egz-Phe-NH2 (peptide)” registered an IC50 activity group, enzyme release assay of less than 200 nM.
